Laboratory results reported in patent publication US20250101107A1 (REPERTOIRE IMMUNE MEDICINES, published 2025).
Numbering of substitutions follows the chain as printed. In names and notes the source's numbering stands.

B1: 02-Parent-VH-M39L (antibody, V domains shown)
VH: EVQLQQSGPELVKPGASLKISCKASGYTFTDFTLHWVKQSHGKSLEWIGLVNPNNGGNIYNQNFKGKATLTVDTSSSTAYMELRSLTSEDSSVYYCGRVPLYTSHGMDYWGQGTSVTVSS
VL: DIVLTQSPAFLAVSLGQRATISCRASESVDSYDINSMHWYQQKPGQPPKLLIYRASHLQSGIPARFSGSGSRTDFTLTINFVEADDVATYYCQQSNEDPLTFGAGTKLELK
notes: also called murine 02A01 VH-M39L
B2: 02A01-IgG-IL12 (LC) (other, not shown: a dimerising Fc or GST)
heavy: B1 VH with L34M
light: B1 VL
B3: 03-Parent-VH-D64E (antibody, V domains shown)
VH: DVQFQESGPGLVKPSQSLSLTCTVTGYSITSDFAWNWIRQFPGNELEWMGYISYSGETNYNPSLRSRISITRDTSKNQFFLQLDSVTTEDTATYYCTIRGYYTDSAFVFWGQGTLVTVSA
VL: DIQMTQSSSYLSVSLGGRVTITCKASDHINNWLAWYQQKPGNAPRLLISGATSLETGVPSRFTGSGSGLDYTLSITSLQTEDVATYYCQQYWNSPFTFGSGTKLEIK
notes: also called 03A01 VH-D64E
B4: 03A01-IgG-IL12 (LC) (other, not shown: a dimerising Fc or GST)
heavy: B3 VH with E57D
light: B3 VL
B5: humanized 02A01-VH2-VK2 (antibody, V domains shown)
VH: EVQLVQSGAEVKKPGATLKISCKASGYTFTDFTMHWVQQAPGKGLEWIGLVNPNNGGNIYNQNFKGRATLTVDTSTSTAYMELSSLRSEDTSVYYCGRVPLYTSHGMDYWGQGTLVTVSS
VL: EIVLTQSPATLSVSPGERATISCRASESVDSYDINSMHWYQQKPGQAPRLLIYRASHLQSGIPARFSGSGSRTDFTLTISSVEPEDFATYYCQQSNEDPLTFGQGTKLEIK
B6: humanized 02A01-VH1-VK1 (antibody, V domains shown)
VH: B5 VH with A9P, K12V, Q38K, G44S
VL: B5 VL with A47P
B7: humanized 02A01-VH1-VK2 (antibody, V domains shown)
VH: B5 VH with A9P, K12V, Q38K, G44S
VL: B5 VL
B8: humanized 02A01-VH1-VK3 (antibody, V domains shown)
VH: B5 VH with A9P, K12V, Q38K, G44S
VL: B5 VL with V13L, V82L
B9: humanized 02A01-VH2-VK1 (antibody, V domains shown)
VH: B5 VH
VL: B5 VL with A47P
B10: humanized 02A01-VH3-VK1 (antibody, V domains shown)
VH: B5 VH with N61A, Q62E, N63K, K65Q
VL: B5 VL with A47P
B11: humanized 02A01-VH3-VK2 (antibody, V domains shown)
VH: B5 VH with N61A, Q62E, N63K, K65Q
VL: B5 VL
B12: humanized 03A01-VH1-VK1 (antibody, V domains shown)
VH: EVQFQESGPGLVKPSQTLSLTCTVTGYSITSDFAWNWIRQPPGKELEWMGYISYSGDTNYNPSLRSRITISRDTSKNQFSLKLSSVTAADTATYYCTIRGYYTDSAFVFWGQGTLVTVSS
VL: DIQMTQSSSTLSVSLGDRVTITCKASDHINNWLAWYQQKPGKAPRLLISGATSLETGVPSRFSGSGSGLEYTLTISSLQPDDFATYYCQQYWNSPFTFGQGTKLEIK
B13: humanized 03A01-VH2-VK1 (antibody, V domains shown)
VH: B12 VH with T25S, E45G, T93V
VL: B12 VL
B14: humanized 03A01-VH4-VK1 (antibody, V domains shown)
VH: B12 VH with T25S, E45G, M49I, N59Y, R65K, I68V, T93V
VL: B12 VL
B15: humanized 03A01-VH4-VK2 (antibody, V domains shown)
VH: B12 VH with T25S, E45G, M49I, N59Y, R65K, I68V, T93V
VL: B12 VL with S8P, L15V, R45K
B16: humanized 03A01-VH4-VK3 (antibody, V domains shown)
VH: B12 VH with T25S, E45G, M49I, N59Y, R65K, I68V, T93V
VL: B12 VL with S8P, V13A, L15V, R45K

Assays:
[1] = molecular target: T1, human CD8 on human T cells (human, UniProt P01732 22-235; P10966 22-210); assay: flow cytometry, 0.2 nM antibody on human CD8+ T cells, anti-human IgG detection (MFI AF647)
T1 construct: whole, on cells; Target as carried by human CD3+/CD8+ T cells, PBMCs or MART-1-specific T cells; the mice were immunized with human CD8a; also called hCD8; CD8 expressed on the cell surface
T1 sequence (P01732 22-235, chain 1 of 2): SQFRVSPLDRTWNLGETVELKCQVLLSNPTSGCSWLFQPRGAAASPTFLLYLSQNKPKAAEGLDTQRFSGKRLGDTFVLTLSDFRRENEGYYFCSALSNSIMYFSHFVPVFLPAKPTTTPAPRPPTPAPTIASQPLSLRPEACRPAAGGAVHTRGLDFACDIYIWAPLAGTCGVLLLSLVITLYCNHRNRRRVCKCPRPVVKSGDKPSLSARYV
T1 sequence (P10966 22-210, chain 2 of 2): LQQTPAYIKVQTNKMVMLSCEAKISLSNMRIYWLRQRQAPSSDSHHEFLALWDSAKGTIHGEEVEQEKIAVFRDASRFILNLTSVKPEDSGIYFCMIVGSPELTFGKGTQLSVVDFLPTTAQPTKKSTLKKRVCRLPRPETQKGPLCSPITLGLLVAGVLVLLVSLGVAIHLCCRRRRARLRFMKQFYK
Method: The 24 humanized 02A01-derived anti-CD8 antibodies (excluding 02A01-VK3(D30E/N35Q)) were screened for their ability to bind human CD8 by evaluating binding to CD8+ T cells. The non-humanized parent (“02-Parent”) and the non-humanized parent comprising a heavy chain M39L liability mutation (“02-Parent-VH-M39L”) were used as controls. […] Cells were washed with 1×phosphate buffered saline (PBS) containing 1 mg/mL bovine serum albumin (PBS/BSA) and then stained with a 1:100 dilution of DyLight650-conjugated anti-human IgG H+L polyclonal antibody (ThermoFisher cat. no. Sa5-10129) in PBS/BSA. Following a 20-30 min incubation at 4° C., the cells were washed once with PBS/BSA, and then resuspended in PBS/BSA for analysis on a FACSCelesta using Diva software (BD Biosciences). The resulting data were analyzed using FlowJo. Data were quantified and reported as Max fluorescence intensity (MFI) of human IgG-Fc. […] Complete replacement of the HCDR1 (antibodies comprising VH5) eliminated binding to the CD8+ T cells.

[2] = molecular target: T1, human CD8 on human T cells; assay: cell-based or functional assay
[3] = molecular target: T1, human CD8 on human T cells; assay: flow cytometry, 5 nM antibody on human CD8+ T cells, anti-human IgG detection (MFI AF647)
Method: The 16 above-referenced humanized 03A01-derived anti-CD8 antibodies were screened for their ability to bind human CD8 by evaluating binding to CD8⁺ T cells. The non-humanized parent (“03-Parent”) and the non-humanized parent comprising a heavy chain D64E liability mutation (“03-Parent-VH-D64E”) were used as controls. […] Cells were washed with 1 X phosphate buffered saline (PBS) containing 1 mg/mL bovine serum albumin (PBS/BSA) and then stained with a 1:100 dilution of DyLight650-conjugated anti-human IgG H+L polyclonal antibody (ThermoFisher cat. no. Sa5-10129) in PBS/BSA. Following a 20-30 min incubation at 4° C., the cells were washed once with PBS/BSA, and then resuspended in PBS/BSA for analysis on a FACSCelesta using Diva software (BD Biosciences). The resulting data were analyzed using FlowJo. Data were quantified and reported as Max fluorescence intensity (MFI) of human IgG-Fc. […] Complete replacement of the LCDR1 (antibodies comprising VK4) eliminated binding to the CD8+ T cells.

Row | binding result [1] | binding result [3] | also measured | Binder
1 | binds |  |  | B1
2 |  |  | EC50 for stimulation of pSTAT4 signaling, CD8+ T cells in pre-activated human PBMCs [2]: 0.00272 nM | B2
3 |  | binds |  | B3
4 |  |  | EC50 for stimulation of pSTAT4 signaling, CD8+ T cells in pre-activated human PBMCs [2]: 0.0147 nM | B4
5 | binds |  |  | B5
6 | binds |  |  | B6
7 | binds |  |  | B7
8 | binds |  |  | B8
9 | binds |  |  | B9
10 | binds |  |  | B10
11 | binds |  |  | B11
12 |  | binds |  | B12
13 |  | binds |  | B13
14 |  | binds |  | B14
15 |  | binds |  | B15
16 |  | binds |  | B16
